Reference: paper PMC6009593

Target: Mre11 (PfuMR complex);Rad50 (PfuMR complex) (Pyrococcus furiosus;Pyrococcus furiosus, UniProt Q8U1N9;P58301 1-426;1-882, |)
Assay: EMSA

Sequence of Mre11 (PfuMR complex);Rad50 (PfuMR complex) (P58301 whole entry, one chain of several): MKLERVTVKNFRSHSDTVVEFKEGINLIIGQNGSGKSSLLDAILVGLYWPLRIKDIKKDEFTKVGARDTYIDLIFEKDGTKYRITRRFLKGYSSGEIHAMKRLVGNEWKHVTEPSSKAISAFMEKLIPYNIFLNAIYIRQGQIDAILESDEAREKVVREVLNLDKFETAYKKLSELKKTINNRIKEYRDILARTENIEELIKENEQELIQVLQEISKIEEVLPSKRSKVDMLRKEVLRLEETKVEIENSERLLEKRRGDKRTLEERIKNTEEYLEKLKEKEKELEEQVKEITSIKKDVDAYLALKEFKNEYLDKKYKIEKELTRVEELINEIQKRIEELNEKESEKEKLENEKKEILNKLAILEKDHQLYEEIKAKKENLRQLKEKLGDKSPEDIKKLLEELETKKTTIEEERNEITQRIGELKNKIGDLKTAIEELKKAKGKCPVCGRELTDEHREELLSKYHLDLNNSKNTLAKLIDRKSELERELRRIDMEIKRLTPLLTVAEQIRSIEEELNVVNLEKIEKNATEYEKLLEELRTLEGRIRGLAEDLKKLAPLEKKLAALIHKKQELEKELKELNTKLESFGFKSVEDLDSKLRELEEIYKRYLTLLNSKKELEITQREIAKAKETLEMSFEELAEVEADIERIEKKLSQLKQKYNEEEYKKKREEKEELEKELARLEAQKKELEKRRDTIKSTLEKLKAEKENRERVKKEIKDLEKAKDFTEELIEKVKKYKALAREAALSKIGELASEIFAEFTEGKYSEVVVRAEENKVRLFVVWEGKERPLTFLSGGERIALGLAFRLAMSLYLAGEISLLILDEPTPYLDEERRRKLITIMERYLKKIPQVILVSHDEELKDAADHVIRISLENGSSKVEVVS

B1: S50/50s (dsDNA)
DNA 1: CTGCAGGGTTTTTGTTCCAGTCTGTAGCACTGTGTAAGACAGGCCAGATG
DNA 2: CATCTGGCCTGTCTTACACAGTGCTACAGACTGGAACAAAAACCCTGCAG
modifications: phosphorothioate bonds at the last 5 linkages of the 3' end of strand 2 (CCCsTsGsCsAsG)
**Q.** Does B1 bind?
**A.** binds
